Numbering of substitutions follows the chain as printed. In names and notes the source's numbering stands. Where two headings read alike, the source gives them in different places.
T1: Human CD1d on cells (human, UniProt P15813 20-335)
T1 sequence (looked up): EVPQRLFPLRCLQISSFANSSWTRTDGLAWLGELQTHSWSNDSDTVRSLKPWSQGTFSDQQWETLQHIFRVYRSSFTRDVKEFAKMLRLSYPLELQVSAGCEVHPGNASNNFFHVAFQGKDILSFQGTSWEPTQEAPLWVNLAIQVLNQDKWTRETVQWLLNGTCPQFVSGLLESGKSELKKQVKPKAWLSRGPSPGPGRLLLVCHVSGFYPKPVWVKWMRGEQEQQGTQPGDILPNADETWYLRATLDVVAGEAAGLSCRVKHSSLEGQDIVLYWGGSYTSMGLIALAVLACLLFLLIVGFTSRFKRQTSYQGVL

B1: 401.11.77 (antibody, name in Kabat numbering, V domains shown)
VH: QVQLVGSGGGLVKPGRSLRLSCAASGFTFDDYAMHWVRQAPGKGLEWVATIIWNSAIIGYADSVKGRFIVSRDNAKNSLYLQMNSLRAEDMALYYCAKDMCSGSGCPDGYFDSWGQGTLVTVSS
VL: DIQMTQSPSSVSASVGDRVTITCRASQHISSWLAWYQQKPGKAPNLLIYAASSLQSGVSSRFSGSGSGTDFTLTISSLQPEDFATYYCQQANRFPLTFGGGTKLEIKR
B2: 401.11.79 (antibody, name in Kabat numbering, V domains shown)
VH: B1 VH with G103S, S104T
VL: B1 VL
B3: 401.11.80 (antibody, name in Kabat numbering, V domains shown)
VH: B1 VH with G103S, S104W
VL: B1 VL
B4: 401.11.81 (antibody, name in Kabat numbering, V domains shown)
VH: B1 VH with G103S, S104L
VL: B1 VL
B5: 401.11.82 (antibody, name in Kabat numbering, V domains shown)
VH: B1 VH with G103S, S104V
VL: B1 VL
B6: 401.11.83 (antibody, name in Kabat numbering, V domains shown)
VH: B1 VH with G103S, S104K
VL: B1 VL
B7: 401.11.84 (antibody, name in Kabat numbering, V domains shown)
VH: B1 VH with G103S, S104R
VL: B1 VL
B8: 401.11.85 (antibody, name in Kabat numbering, V domains shown)
VH: B1 VH with G103S, S104Y
VL: B1 VL
B9: 401.11.151 (antibody, IgG4, V domains shown)
VH: B1 VH with Q1E, G6E, K13Q, M91T, G103S
VL: B1 VL with N45K, S59P
B10: 401.11.152 (antibody, IgG4, V domains shown)
VH: B1 VH with Q1E, G6E, K13Q, M91T, G103S
VL: B1 VL with N45K
notes: IgG4 (S228P)
B11: 401.11.154 (antibody, IgG4, V domains shown)
VH: B1 VH with M91T, G103S
VL: B1 VL with N45K, S59P
notes: IgG4 (S228P)
B12: 401.11.155 (antibody, IgG4, V domains shown)
VH: B1 VH with Q1E, G6E, K13Q, G103S
VL: B1 VL with N45K, S59P
notes: IgG4 (S228P)
B13: 401.11.156 (antibody, IgG4, V domains shown)
VH: B1 VH with M91T, G103S, S104G
VL: B1 VL with N45K
notes: IgG4 (S228P)

Tests used:
[1] = target: T2, Human CD1d/β2M (human, UniProt P15813 20-301; P61769 21-119); assay: SPR, transfection supernatant
T2 construct: also called hCD1d; recombinant human CD1d

[2] = target: T1, Human CD1d on cells; assay: cell-based or functional assay
[3] = target: T2, Human CD1d/β2M; assay: SPR
[4] = target: T1, Human CD1d on cells; assay: cell-based or functional assay; remark: listed apart in the source
[5] = target: T1, Human CD1d on cells; assay: cell-based or functional assay; remark: listed apart in the source
[6] = target: T1, Human CD1d on cells; assay: cell-based or functional assay; remark: listed apart in the source

| Binder | Kd [1] [nM] | NKT IL-4 EC50 (moDC) [2] [ng/mL] | NKT IL-13 EC50 (moDC) [2] [ng/mL] | Kd [3] [nM] | other results |
| --- | --- | --- | --- | --- | --- |
| B1 | 0.272 |  |  |  |  |
| B2 |  |  |  |  | binding result [1]: no binding |
| B3 | 2.34 |  |  |  |  |
| B4 | 0.552 |  |  |  |  |
| B5 |  |  |  |  | binding result [1]: no binding |
| B6 | 1.55 |  |  |  |  |
| B7 | 1.12 |  |  |  |  |
| B8 | 82.3 |  |  |  |  |
| B9 |  | 12.9 | 57.5 |  |  |
| B10 |  | 10.2 | 78.5 | 2.83 |  |
| B11 |  | 4.16 | 17.7 | 1.77 |  |
| B12 |  | 27.6 | 74.7 | 2.42 |  |
| B13 |  | 1.95 | 5.22 | 0.223 | NKT IFN-γ EC50 (moDC) [4]: 7.76 ng/mL; NKT IL-4 EC50 (moDC) [4]: 2.72 ng/mL; NKT IL-5 EC50 (moDC) [4]: 5.86 ng/mL; NKT IL-13 EC50 (moDC) [4]: 9.53 ng/mL; NKT TNF EC50 (moDC) [4]: 4.51 ng/mL; NKT IFN-γ EC50 (THP-1) [5]: 5.81 ng/mL; NKT IL-4 EC50 (THP-1) [5]: 1.99 ng/mL; NKT IL-5 EC50 (THP-1) [5]: 4.45 ng/mL; NKT IL-13 EC50 (THP-1) [5]: 6.91 ng/mL; NKT TNF EC50 (THP-1) [5]: 3.85 ng/mL; fold improvement against 401.11 (IFN-γ, moDC) [6]: ~5.1 fold |
